Biological target: dCas9-24XGP41 (Streptococcus pyogenes serotype M1) (UniProt Q99ZW2)
Test: cell-based or functional assay

NbGP41-sfGFP-VP64-GB1 (from UniProt P06654 228-282) (VHH)
expression of CLV3 in homozygous Setaria MoonTag lines against wild-type ME34 (RT-qPCR): 100 fold
